Biological target: human complement protein C1q (human) (UniProt P02745)
Assay: ELISA, 10 µg/ml human C1q, detection with HRP-conjugated anti-C1q antibody, antibody concentration varied

human complement protein C1q (human), sequence (P02745 23-245 limits assumed, chain 1 of 3): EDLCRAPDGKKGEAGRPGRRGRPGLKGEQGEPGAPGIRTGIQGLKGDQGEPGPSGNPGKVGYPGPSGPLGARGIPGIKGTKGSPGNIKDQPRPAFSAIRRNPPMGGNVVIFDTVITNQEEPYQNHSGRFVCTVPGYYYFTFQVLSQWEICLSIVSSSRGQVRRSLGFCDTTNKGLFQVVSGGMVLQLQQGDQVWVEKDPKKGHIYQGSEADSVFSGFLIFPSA
human complement protein C1q (human), sequence (P02746 28-253 limits assumed, chain 2 of 3, further chain): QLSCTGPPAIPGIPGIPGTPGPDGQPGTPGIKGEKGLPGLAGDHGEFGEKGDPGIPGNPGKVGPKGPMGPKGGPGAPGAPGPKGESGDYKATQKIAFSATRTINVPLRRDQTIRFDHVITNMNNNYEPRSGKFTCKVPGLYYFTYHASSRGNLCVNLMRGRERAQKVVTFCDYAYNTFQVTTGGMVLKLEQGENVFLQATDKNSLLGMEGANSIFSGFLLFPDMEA
human complement protein C1q (human), sequence (P02747 29-245 limits assumed, chain 3 of 3, further chain): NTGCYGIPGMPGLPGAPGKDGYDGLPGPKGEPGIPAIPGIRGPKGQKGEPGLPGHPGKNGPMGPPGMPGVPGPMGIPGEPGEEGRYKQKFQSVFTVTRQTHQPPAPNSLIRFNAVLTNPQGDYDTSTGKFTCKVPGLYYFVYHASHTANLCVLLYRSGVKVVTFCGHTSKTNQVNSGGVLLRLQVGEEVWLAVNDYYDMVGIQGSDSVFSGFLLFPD

Rituximab (antibody)
EC50 (read off the curve): 2 µg/mL

Source: patent US20260055172A1
